The record followed here is the domain aggregation screens of Martell et al. (2025).
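Further: 20 min heating vs room temperature control held 20 min.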

The nature of the data set: soluble fraction after stress (log2 fold change); higher = more stays soluble; pooled small domains, quantitative proteomics. The conditions noted are these: stress: 75 degC.
As for “HMAVEQLKSQIGGFLKANREQSFSAQNMADGLRMNSAAGYQDVVNAMNALVRDGEAVEKDGQFSYNVN”, the “soluble fraction (log2)” value was 0.116.
To “HMAVETYRVKKSDTMQTIADRFGLSVEELLEYNQAYKTRELRARDILIIPSRKERKKLQQQKAQAAAQVVQ” belongs -0.632; to “HMAVGTASNLIGKDIEAYAPIDGSQSSDDTKTISGKVESVHIKDGVVYMNVKDSQSENIIEVEYGALIKVN”, 0.251.
To “HMAVKPIDRLRSLMAESNVTDAELQKVVADKGHYAADAPIDSYSEKFISGWLIKYWSQILNLINADRTVL” belongs -0.691.
The value for “HMAVKTEHGRIWKALPEGQDGYREDVPMFTSKSMYDGSAGIGIFLIRLYEATSDERWLKEAEEAAAHII” was 0.157; that for “HMAVLEGPAGKLGIVRFEANRSFTGMGHERFSSADQAFGTKPAAVVASRLFATGQVAGVHVYGNIITVELA” was 0.632; that for “HMAVNDPDEKFIELGIPADWVQVVRKAGFQTVEALKTVENPNKLHQELSGLNKKMKLGLKTLSQDEVKDWF” was 0.0688.
For “HMAVPMTPGELVGSRVRVLWWKDGRGEVVALARGHQATLPARSEEPLRTGADAVVLEADEGTLVVTS”, the “soluble fraction (log2)” value was -0.13.
Take “HMAVSGRMMVYEYIRQQMREGSLLPGSVLDLPAISHKLGISNTPLRDSLIRLEAEGYLTIYPRSKVVIN”: the “soluble fraction (log2)” value was -3.03.
As for “HMAVTGRVDLRIKPWGYVSVDGAAKVSSPPTMQLKLAPGRHEIEITNPAGAAVTKTVDVIAGKSVTVQHN”, the “soluble fraction (log2)” value was -0.0874.
Consider “HMAVTKVKVITESSNLNIRKGPGTDQPIVGKAAHHEIITLVNKSNDQWWLVRTNDGEEGYSYSRYLEPVT”, for which the “soluble fraction (log2)” value was -0.667.
The value for “HMAVVEVATTTATEYKVEKGHHFKVGDFVMFKTGAKSYAITAIDTTSPIFDKITVGTTLGEAIPVGGTLM” was -1.62; that for “HMAVVIPDVKGMTIEEAAPFLAEKGIRYNIIDSVFSKDVDPGAIVEIVPTPGSKVKEGRIVFVTINAK” was -0.774.
As to “HMAVVQMVDRPGGLDELLKDVVRAGVNFANAYGRTASDGNSAFFVIDIQDIPGARQKLADVGLQILADEAV”, the “soluble fraction (log2)” value was -0.383.
To “HMAWAVDVGVVGLFPGKAVLVIDGGAPRTVPVGANVGGVRLLAVDQGSATVEIGGKRQRLAIGQHAH” belongs -1.69; to “HMAWIGEHTVTSEDTLSHIALKFYGHATPPYYKLIYEANKAIIGDNMNIIVPGQVLRIPALPEEL”, -1.35.
The value for “HMAYLTVPAVIAKDTKKSIQLLESKGFEVVIQDSIYTDTLARGTVIKQLPDPNATVKINRTVYLTVNRYTP” was -2.41.
For the sequence “HMAYQQITIKANVVNVRQGPGLSYDVMSQANKGETMNVISQKNNWYQVRLSGDKIGWVASWLVDNT”, the “soluble fraction (log2)” value is -3.08.
For the sequence “HMAYWVVKNNQVSLQINRSNYQITSTARALSNGNLGDEIDVKVLQSGVIKKAVVIGKGQVELLR”, the “soluble fraction (log2)” value is -3.24.
On to “HMDAHIGTLTPRERETLHHLAIGHSNKVIAKKLNLAESTVKAYVQSILRKLGLSSRVQAAVYAIQHDIR”, for which the “soluble fraction (log2)” value was -0.702.
The value for “HMDAIDPKTVTSWADLWKPEYKSSLLLTDDAREVFQMALRKLGYSGNTTDPKEIEAAYNELKKLMPNVAAF” was -0.193; that for “HMDAIDQDGNHMTFKRWGEQLQEAFQALEAYDTDKAKTILNELIKFPIDSDLNNALKGILSNIDEMMA” was -0.914; that for “HMDAINITTYKGQITLTGTKTGTLVGIYNTAGMLVKSMMSKGEKLYFDNLPSGVYIIKVGEEEPRKVQVI” was -2.16.
Turning to “HMDAKIEYTMSDLIENRLINSDDASMRREKLSEILKIGYGNGKKTLHKLNSFGITREEFEEAMKEVNSH”, the “soluble fraction (log2)” value amounted to 0.0731.
In the case of “HMDAKIKDYADAYAKMDPQQAASLFNNMTTGSLDLVAKILENIPANKRAAILEKMDVNAAAQVTEKMR”, the “soluble fraction (log2)” value is -0.0156.
To “HMDAKSRFQEWVQAETGITPTYRIIGDSGPDHAKTFIAQVLLGERVVGEGVGSSKRAAEQAAAQAALAAM” belongs -0.0803; to “HMDAMMQRLERLKELASSADGSKDYLILGPLRRDLAKLMALEDPKLRQGAEELDRKILAILS”, -0.477.
On to “HMDAPHPSVVQVYFESRDRSWTYYNDRFDLHEGDLVYVEGKLEGVRGRVVEVSYNFRIKLADYKRVIAVA”, for which the “soluble fraction (log2)” value was -3.29.
To “HMDASSAVQFGSLLRDARRRQGLSQAELGGDKYSGSYISHLESGRRVATPEVIEFLSRRLGVSPLEWGVS” belongs -0.0146.
The value for “HMDASSTGFLGKHVQIVGLVSQPHLNGRRGVASRFDSNRRRYLVRLDEIDGHAEVVAFRPDNLVLSNLL” was -0.627; that for “HMDASVTIEQVERMVQANVSDDVIISQLQGRGAAQNLSTDDIINLTQKGISAEVIKAYQSAG” was 0.111.
With “HMDAVLMEYDRLLALELTEDPDVYQDLLDKVREQSLGADGRVTDKYREKFDAVATRFDDYEDNYQW”, the “soluble fraction (log2)” value is -0.113.
Regarding “HMDAVQAGKRVLIVDDLIATGGTAKAATDLIEKAGGTVVGFSFVMRLDGLDGLDKLDGKPSSSLIAMP”, the “soluble fraction (log2)” value stood at 0.193.
To “HMDAYMGEAKDEETFAEEYLNDSGLLNEIPESVARYFDIVAYARDLLIGDFSLHDGHVFNMT” belongs 0.358; to “HMDDAFLNKEMLKQALENLNEREKKLIYLRFYEGLTQKEIADRLSLSQMHVSRLLNESLNKLRRKI”, -0.44.
The value for “HMDDATDLPYQEFRTQVSDGQVKIAQFNNNTGKITFESISGDKFKTSGPLELSSDDERLFLENIEDFKFFT” was 0.0939; that for “HMDDATDVPYQEFRTQVTSGQVEIAQFNNNTGKISFQSTSGEKFETSGPLELSSDDERLFLENIEDFKFFT” was 0.416.
To “HMDDATIKVNIAAKFLNAGNNLFVDIDTTVLEGRVLLTGLVDTQEVRIDAVRLVWEVEGIREVINEIEIG” belongs -5.19; to “HMDDATTQLADRLLDLRRKAGYSQEQLADLLGVSRQAISKWEGAQGRPEVDNVVKLAQIYRVSTDFILTGS”, -0.698.
On to “HMDDAVSHPDAGHIVTVTKVSADGTAEVMYRGASWRAKTADGSPLTAGSARIVRVDGAALVVEP”, for which the “soluble fraction (log2)” value was 0.0931.
On to “HMDDDDPDQEIAQYYEKLRAMNPDEETKQKLSDEINKLSKMMYSSQEAMVSRNYLDTVFSLPWHQF”, for which the “soluble fraction (log2)” value is -0.146.
To “HMDDEELDALKGIPANEYTQEQIKQISEVFHTLQKNEVKDWLNSLQLRNIELPFELRNEVFSQ” belongs 0.211; to “HMDDFPLKRGSKGNRVTLLQNALVKKYGAGILPKYGVDGMFGKEVEAALVHAKIPTTINEANYTKIV”, -0.0514; to “HMDDFSETLLQYIKEKGGHISLNDKTDAGVIYETFGVSKKTFKKAVGDLYKKRLIVLEDTGIRL”, -0.501.
The value for “HMDDHLSFLAARLPDGASFDTDFDALGIDSFGMIALRAEVEERLGEQIADSDWTKVERPSEILAMLERK” was -0.204; that for “HMDDLATAYKAMGVDASISDKDLKRAYRKLMSQHHPDKMIAKGVPADMVAMATEKTQEIQAAYDLIERSR” was 0.203; that for “HMDDLIIQIELKQEGLEITGLKVLLKEDSVIDEQVKQTIRRKIERFLVNLYGNPNVYVSKFSMGI” was -0.296.
In the case of “HMDDLTTASIKQQLKALIDEENKNKPLSDQKLTDALKAQGIDISRRTVAKYREAMNIPGSSKRKRF”, the “soluble fraction (log2)” value is -0.0771.
To “HMDDMVLEIGPGIGTMTQYLAEAAGKVVAVEIDRNLLPILQETLADYDNVKVIHADVLSLDLEKLVQEE” belongs -0.0859; to “HMDDPDALITDSQLKAIHVLLGKLKIDDNLKHAYIADVLQLKDIPETLKTLTKHQGSTIIERLNLLIKDA”, -0.0192; to “HMDDPLSQLTPREREVLELMASGASNQGIADALVITVRAVEKYVSSIFGKLGLPSTGSESRRVLAVLTFLR”, -0.178.
The value for “HMDDPYAGLRQRAYLFLRERDGAVPEEELIEHVFGSSGNPALWRPLLRQVLGADDRLDLRADGYWALRG” was -0.187; that for “HMDDSPTARALRTLDLIHNRPGITAAELADRLGVTERAVRRYVLTLRDAGVPVLGTPGRYGGYQVGK” was -0.818.
The value for “HMDDSVTFSEFVRMVDSGQVESVRITGNEVTGSDSTGNTFRTFVPPQYEGLVNRLVERDVAVTAEE” was 0.149.
Regarding “HMDDSVVFSLNAKGIRLTGAGKYGEAIALFDKAIAAKPGLSGLYFNRAEARRLSGDLPGARSDLEQALAI”, the “soluble fraction (log2)” value was -0.416.
Take “HMDDTRLELTLLGKIHNDEEINKQSHINVNIKNGVILLTGESPRREITERILTLARTFEHTRQIVNQIAT”: the “soluble fraction (log2)” value amounted to 0.0479.
To “HMDDVIDVYATYDKSAEGVLSNIQLFSNQKKTTPITPESGKIYIDVEGNYQFRWTGTQYATV” belongs 0.15; to “HMDDYRSLRGQEKAAIFLMSLSQEQAAKIFANLDDEEIKEISQAMSSLGTVGSEIIERLFVEFAEQVSS”, -1.21; to “HMDEARLAVASNLIRLRTDAGMTQAELGEKLNYSDKTISKWERAEAIPDAFVLKQIGELFHVSVDFLLRTH”, -2.28.
For the sequence “HMDEDTWKLYKRAYKKYYARYMKGNMSEEAFKTWAAQAARDRDAAIEQVKAALDENLKAQVIERLKEELNR”, the “soluble fraction (log2)” value is -0.831.
For “HMDEEEKGEVEVPNLIGLTRKEAKKTLEEEGLLIETKESLKTNLDDEYEKIKSQLPKAGIKIKQGSTVYVD”, the “soluble fraction (log2)” value came out at 0.154.
The value for “HMDEGQEHYVKETDLPFYSEADPASSVIFPLVLNQKLIEKERKDDWIRALEPTTGLVGWVLLKSLSPQQLS” was -0.0643; that for “HMDEIELLLQDAIQKLPEKQRMVFTLRYYDNLPYEEISKILDMSVSTLKTNYHYAKSKIEQYILDHS” was -1.64; that for “HMDEKPPHEALSNREFQVLQLLAQGRSVGQIAQQLTLSANTISTYRARIFDKLGLHNPADLFSYAARHRLT” was -1.19.
The value for “HMDELNFGNFEGTRIFVQRTARKKSIALSIRDGTIVILAPRHIPNQEIQELITTNTDWIRAKLSQHAETKR” was -3.21; that for “HMDELVYVPNITGKTVEEARTELQKRDLGLNIAGHQFSDEFGKGRIISQDPAAGSRLKVNRSISVIVSSGQ” was 0.0849.
The value for “HMDENVVLRKVAREAFVIEYVRGIRAIDPGIGGPKLWLMYKREFGDNDTVGRDTFEDILDRNNLKVRI” was -4.06.
As to “HMDEPADVAIFDGFRQMSEDELKKLYESLNLAMTFKDFLHIQNYFKNEENREPSVTEIRVLDTYWSDH”, the “soluble fraction (log2)” value was 0.0441.
To “HMDEPVDRLSPREQEVLALMAEGRSNAAIAHRLSITEKAVAKHINSIFTKLDLPLDEDDHRRVRAVLAWLR” belongs -1.33.
